In patent US20030083261A1, “Class of 12mer peptides that inhibit the function of the mitotic check point protein Mad2” (priority 2001, published 2003):
Entries after “also recorded” stand apart in the source; their conditions may differ. No end group written: not given here.

Columns and labels:
[1] = oral administration; cited from earlier work
[2] = in words; cited from earlier work
[3] = oral tablet; cited from earlier work
Mad2 [4] = biological target: T1, Mad2 (Homo sapiens, UniProt Q13257); experiment: 1H-15N HSQC NMR binding and competition on 15N-labeled Mad2; design: made in house; details: for binding to Mad2: change of the HSQC spectrum of Mad2: addition of peptide to 15N-labeled Mad2; for relative affinity toward Mad2 by competition: two peptides added to Mad2, HSQC spectrum
T1 sequence (Q13257 whole entry): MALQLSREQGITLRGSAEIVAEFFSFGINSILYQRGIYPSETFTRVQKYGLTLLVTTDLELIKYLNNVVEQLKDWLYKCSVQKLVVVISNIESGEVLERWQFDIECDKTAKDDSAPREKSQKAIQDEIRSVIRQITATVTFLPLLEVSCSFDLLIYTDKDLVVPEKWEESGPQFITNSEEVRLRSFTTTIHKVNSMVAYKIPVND
Experimental: To determine whether MBP1 and Cdc20 bind to the same site on Mad2. Mad2 was pre-incubated with an excess amount of Cdc20P1. MBP1 was then added to the pre-formed Mad2-Cdc20P1 complex. HSQC spectra were taken before and after the addition of MBP1. Prior to the addition of MBP1, Mad2 formed a complex with Cdc20P1 as indicated by the HSQC spectrum. After the addition of MBP1, the HSQC spectrum of the resulting sample looked identical to that of the Mad2-MBP1 complex. Therefore, MBP1 effectively displaced Cdc20P1 away from Mad2 and formed a complex with Mad2 in the presence of Cdc20P1. […] However, it is also conceivable that MBP1 affects the binding of Cdc20P1 to Mad2 in an allosteric fashion.
The relative affinity of Mad2-MBP2 was compared to Mad2-Cdc20P1 and Mad2-MBP1. […] However, when both MBP1 and MBP2 were added to Mad2, the HSQC spectrum of the resulting sample contained two sets of signals of roughly equal intensity: one set of signals belonged to Mad2-MBP1 while the other set was from Mad2-MBP2. […] Furthermore, the exchange between these two bound forms of Mad2 occurs with a rate that is slow on the NMR time scale.

HeLa cells = experiment: Mitotic arrest by GFP-Mad2 overexpression in HeLa cells; assay type: cell-based; details: co-transfection of plasmid encoding the peptide; cell shape, DNA-staining, FACS
Text: Overexpression of Mad2 in HeLa cells causes a prolonged mitotic arrest because Mad2 at elevated levels inhibits APCCdc20 in these cells in the absence of spindle damage. […] The cells round up when they undergo mitosis while the interphase cells are flat. […] The cell cycle status of the transfected cells was also confirmed by DNA-staining and by FACS analysis.

Mad2 [5] = biological target: T1, Mad2; experiment: In vitro APC ubiquitination assay (Mad2 inhibition of APC^Cdc20, cyclin B1 substrate); assay type: biochemical; details: peptide at 100 μM
Text: To determine whether binding of MBP1 affects the association of Mad2 with the intact Cdc20, the inventors performed an in vitro APC ubiquitination assay. In this assay, a Myc-epitope tagged N-terminal fragment of human cyclin B1 was used as the substrate. Purified recombinant human E1, UbcH10 (E2), ATP, and ubiquitin were also included (FIG. 3A). In the presence of active APC (E3), ubiquitin was ligated to the lysine side chains of cyclin B1, forming cyclin-ubiquitin conjugates with isopeptide linkages. The reaction mixture was then analyzed by SDS-PAGE followed by immuno-blotting with an anti-Myc antibody. The appearance and the intensity of the higher molecular weight bands were then used as the criteria for the activity of APC.
Addition of the APC activator, Cdc20, greatly stimulated the activity of APC. […] Therefore, MBP1 can block the biochemical function of Mad2 in vitro.

Mad2 [6] = biological target: T1, Mad2; experiment: ELISA-type assay of phage display clones on Mad2; assay type: binding; design: made in house; details: phage clone on Mad2
Text: Phage display library with Mad2 was screened and several clones were sequenced and analyzed using ELISA-type assays.
By coincidence, the MBP1 sequence was isolated again and the MBP1 phage clone gave an ELISA reading of 0.62 (OD at 410 nm). […] The peptides with higher ELISA readings than MBP1 are synthesized. As these peptides, including MBP1, contain tryptophan in their sequences, tryptophan fluorescence assay cannot be used to measure the affinities of these peptides toward Mad2. Alternative assays are developed and used.

Mad2 [7] = biological target: T1, Mad2; experiment: Aggregation of Mad2-peptide complex over time (HSQC after incubation at 30° C.); design: made in house; details: incubation at 30° C. / extended periods of time
Experimental: To confirm if the complex aggregated over time, an HSQC spectrum was acquired on a freshly prepared ^15N-Mad2-Cdc20P1 sample. This sample was then incubated at 30° C. (the temperature for NMR data acquisition) for 48 hours and another HSQC was acquired.

Mad2 [8] = biological target: T1, Mad2; experiment: Tryptophan fluorescence titration of Mad2 with peptide; assay type: binding; design: made in house; details: addition of peptide to saturation
Experimental: Binding affinity between Mad2 and Cdc20P1 was determined. Two tryptophan residues are located in the proximity of the C-terminal tail of Mad2 that is involved in binding to Cdc20. Thus, binding of Cdc20P1 may affect the tryptophan fluorescence of Mad2. The intensity of tryptophan fluorescence of Mad2 was indeed reduced by 70% upon the addition of Cdc20P1 to saturation. […] This is consistent with the fact that binding of Cdc20P1 to Mad2 occurs with an intermediate exchange rate on the NMR time scale. The relative low affinity of Cdc20P1 toward Mad2 may also be the cause of the slow aggregation phenomenon of the Mad2-Cdc20P1 complex. Thus, Mad2 ligands with higher affinity for Mad2 are required for structural studies.

[9] = cited from earlier work
[10] = in vivo; cited from earlier work
[11] = biological target: T2, Mad2 protein (mitotic checkpoint protein Mad2, purified recombinant) (UniProt Q13257 1-205); experiment: tryptophan fluorescence titration of Mad2 with Cdc20P1
T2 construct: also called 15N-Mad2; free Mad2
T2 sequence (Q13257 whole entry): as above

For `N[C@@H](Cc1ccc(N(CCCl)CCCl)cc1)C(=O)O` [Melphalan, 4-[bis(2-chloroethyl)amino]-L-phenylalanine], the “fraction of patients with multiple myeloma showing a favorable response” value [1] is listed as “one third to one half” and the solubility in water [2] is listed as “insoluble in water”.

For `O=C(O)CCCc1ccc(N(CCCl)CCCl)cc1` [Chlorambucil, 4-[bis(2-chlorethyl)amino] benzenebutanoic acid], the “absorption from the gastrointestinal tract” value [3] is listed as “rapidly and completely absorbed from the gastrointestinal tract”.

In the case of “MBP1: 12-residue Mad2-binding peptide identified by phage display, contains tryptophan; probably SWYSYPPPQRAV (SEQ ID NO:2)”, the “binding to Mad2: change of the HSQC spectrum of Mad2” value (Mad2 [4]) is reported as “caused dramatic chemical shift changes of the majority of signals”, the “relative affinity toward Mad2 by competition” value (Mad2 [4]) is reported as “affinity of MBP1 toward Mad2 is higher than that of Cdc20P1; also recorded: MBP1 and MBP2 bind to Mad2 with very similar affinities” and the “effect on mitotic arrest caused by GFP-Mad2 overexpression” value (HeLa cells) is reported as “counteracted the action of Mad2; also recorded: did not arrest in mitosis”. The “effect on the ability of Mad2 to inhibit the ubiquitination activity of APC^Cdc20” value (Mad2 [5]) was “blocked the ability of Mad2 to inhibit APC^Cdc20; also recorded: prevented Mad2 from inhibiting APCCdc20”, the ELISA reading (Mad2 [6]) was 0.62 OD at 410 nm and the “aggregation of the Mad2-peptide complex” value (Mad2 [7]) was “stable for extended periods of time and did not aggregate”.

In the case of `O=NN(CCCl)C(=O)NCCCl` [Carmustine, 1,3 bis (2-chloroethyl)-1-nitrosourea], the solubility in water [2] is listed as “poorly soluble in water”.

In the case of DVEEAKILRLSGKP [Cdc20P1], the “reduction of intensity of tryptophan fluorescence of Mad2” value (Mad2 [8]) is reported as 70%.

For `O=NN(CCCl)C(=O)NC1CCCCC1` [Lomustine, 1-(2-chloro-ethyl)-3-cyclohexyl-1 nitrosourea], the “tissue levels versus plasma levels” value ([9]; 15 minutes after intravenous administration) is given as “comparable to plasma levels” and the “radioactivity excreted in the form of degradation products” value ([9]; within 24 hours, oral radioactive lomustine about 30 mg/m^2 to 100 mg/m^2) is given as “about half”.

With GWWHIPSPVLRP [clone 11] the ELISA reading (Mad2 [6]) was 1.37 OD at 410 nm.

For `O.O=P1(N(CCCl)CCCl)NCCCO1` (stereo not shown) [Cyclophosphamide, 2H-1,3,2-Oxazaphosphorin-2-amine, N,N-bis(2-chloroethyl)tetrahydro-, 2-oxide, monohydrate], the “stability in the gastrointestinal tract” value [10] is listed as “stable in the gastrointestinal tract”.

With “MBP2: Mad2-binding peptide from phage display sharing strong sequence similarity with Cdc20P1, no tryptophans; probably DARIIKLPVPKP (SEQ ID NO:3)” the “binding to Mad2: change of the HSQC spectrum of Mad2” value (Mad2 [4]) was “induced dramatic chemical shift changes of the majority of Mad2 signals”, the “relative affinity toward Mad2 by competition” value (Mad2 [4]) was “binds to Mad2 with a higher affinity than Cdc20P1; also recorded: MBP1 and MBP2 bind to Mad2 with very similar affinities” and the “aggregation of the Mad2-peptide complex” value (Mad2 [7]) was “did not form high molecular weight aggregates”.

B1: Cdc20P1 (14-amino acid peptide corresponding to residues 124-137 of Cdc20) (peptide, UniProt Q12834 124-137, looked up)
peptide: DVEEAKILRLSGKP
notes: also called Cdc20P1 peptide; 15N-Cdc20P1
Molecule B1 has a Kd [11] of 3.6 µM.
